From US20050037969A1 (ARBOR VITA, published 2005) come the findings set out here.

Ends that are not written are not given here. * marks the point of attachment. Biotin = O=C1N[C@H]2[C@H](CS[C@H]2CCCCC(=O)*)N1

Experiment in all cases: A/G plate assays, Table 2 matrix
Assay [1] addresses T1, GST-DVL1 PDZ domain fusion protein (human, UniProt O14640 247-339).
T1 construct: also called human dishevelled segment polarity protein homolog; not shown: glutathione S-transferase encoded by vector pGEX-3X (Pharmacia)
T1 sequence: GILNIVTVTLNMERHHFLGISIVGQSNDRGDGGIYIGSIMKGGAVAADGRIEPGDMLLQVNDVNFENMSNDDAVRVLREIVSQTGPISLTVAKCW

Assay [2] addresses T2, GST-mouse syntenin fusion protein (Mus musculus, UniProt O08992 108-286).
T2 construct: also called Mus musculus Syntenin; not shown: glutathione S-transferase encoded by vector pGEX-3X (Pharmacia)
T2 chain: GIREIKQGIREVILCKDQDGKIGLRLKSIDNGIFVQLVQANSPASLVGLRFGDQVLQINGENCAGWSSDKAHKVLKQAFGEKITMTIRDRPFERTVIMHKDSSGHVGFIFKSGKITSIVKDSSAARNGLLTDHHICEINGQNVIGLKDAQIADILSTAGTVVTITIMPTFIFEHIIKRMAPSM

Assay [3] has as its target T3, GST-cytohesin binding protein PDZ domain fusion protein (Homo sapiens (Human), UniProt O60759 74-165).
T3 construct: also called CBP; not shown: glutathione S-transferase encoded by vector pGEX-3X (Pharmacia)
T3 sequence: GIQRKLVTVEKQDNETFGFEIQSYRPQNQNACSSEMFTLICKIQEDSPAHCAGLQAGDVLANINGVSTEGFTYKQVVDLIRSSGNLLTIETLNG

The target of assay [4] is T4, GST-TAX-IP43 PDZ domain fusion protein (human, UniProt Q13884 109-180).
T4 construct: also called TAX43; not shown: glutathione S-transferase encoded by vector pGEX-3X (Pharmacia)
T4 sequence: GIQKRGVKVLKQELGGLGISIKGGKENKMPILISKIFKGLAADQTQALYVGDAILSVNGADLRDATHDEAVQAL

Assay [5] addresses T5, GST-DLG5 (p-dlg) PDZ domain fusion protein (Human, UniProt Q8TDM6 1343-1583).
T5 construct: also called Human discs large protein p-dlg; not shown: glutathione S-transferase encoded by vector pGEX-3X (Pharmacia)
T5 sequence: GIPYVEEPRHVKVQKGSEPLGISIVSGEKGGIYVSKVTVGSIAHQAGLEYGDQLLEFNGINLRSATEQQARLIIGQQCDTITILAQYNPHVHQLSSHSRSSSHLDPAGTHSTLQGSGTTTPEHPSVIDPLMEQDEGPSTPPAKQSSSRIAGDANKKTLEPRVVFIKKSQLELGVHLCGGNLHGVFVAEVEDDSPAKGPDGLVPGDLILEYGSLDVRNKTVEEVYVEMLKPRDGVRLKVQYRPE

For Biotin-TTNNNPNSAVNIKKIFTDV [KV1.3 C-terminal peptide AA33L, biotinylated], the binding result in assay [1] was “binds”.

On to Biotin-QFMTADETRNLQNVDMKIGV (also called CD44 (long form)) [CD44 C-terminal peptide AA9L, biotinylated], for which the binding result in assay [2] is recorded as “binds”.

B1: Spectrin (beta) C-terminal peptide AA32L, biotinylated (peptide)
peptide: Biotin-SFPPCGHRENVPGQSLVSFV
notes: Marked (S), sticky; also called Spectrin beta (S); Spectrin β
As to B1, the binding result in assay [3], in assay [4] and in assay [5] was “binds” throughout.
